Measured values taken from the DeepSol protein solubility set.

Assay: soluble on expression in E. coli; label from the status in PepcDB or PDB records

Sequence	soluble on expression in E. coli
MGSDKIHHHHHHMTRQCHPLATVVDACAPLRFAPLPDLRLRSFTRSGDQGDAGQWCRADLLAAKNAFAPVYDGFVAATRPGHRLPAATHFLRAVFREPIFLVAAGLYLTGRAPLLDASHLWFPVRADRTLGTPMLTELKVAVTADDRFAGHPETVTFPGSDDVVRAAAHAMVAAFTPVIDALSAHTRVGKRTLWGWVLDTAHFYMLNPARFLGRDAQAAWALANRLADALLEAGAVTRARPRLFPFCDNHPRGTWAVRGTCCFDYKGDPEHGYCTTCPHKCDNERRNELQEWLRNPALAP	not soluble
MGSDKIHHHHHHATVTDSASTDIGIGFSGHGPGTTPGPLDIQWAPIGLDFSNSNMVNTTAVQAFPETTGTNKYVVVSEKRSNEPTREWSLTAQLSDLTNAGGSETLTGAGLKFDAAVKGYTGTNTPESPGSIVDKGARTATVNASSQSVTAGAAAVPVMKDAGTGGASFLGSTAMEMSNVKLEVPANAAKINQQYSGTLTWSLNDTI	not soluble
MVKLENSRKPEKISNKNIPMSDFVVNLDHGDPTAYEEYWRKMGDRCTVTIRGCDLMSYFSDMTNLCWFLEPELEDAIKDLHGVVGNAATEDRYIVVGTGSTQLCQAAVHALSSLARSQPVSVVAAAPFYSTYVEETTYVRSGMYKWEGDAWGFDKKGPYIELVTSPNNPDGTIRETVVNRPDDDEAKVIHDFAYYWPHYTPITRRQDHDIMLFTFSKITGHAGSRIGWALVKDKEVAKKMVEYIIVNSIGVSKESQVRTAKILNVLKETCKSESESENFFKYGREMMKNRWEKLREVVKESDAFTLPKYPEAFCNYFGKSLESYPAFAWLGTKEETDLVSELRRHKVMSRAGERCGSDKKHVRVSMLSREDVFNVFLERLANMKLIKSIDL	soluble
MTESDLRTHATEIHEQFSDQLEIDVDDVIERLDTLVNDYQVPISEARRSVVNTYLDEAGMDRDQLGGGDGGGNEQVNVADVDAPEEWVDVRATVVELWEPRADAVAQVGLLGDETGTIKFTKWSKSDLPSLEEGKSYALRNVVTDEYQGRFSVKLNRTTTIEELDEAIEVGDDSVEADGALVDIQSGSGLIKRCPEDDCTRVLQNGRCSEHGEVEGEFDLRIKGVLDDGEEVTEVIFDEDATEELTGIALEEAKEMAMDALDTTVVADEMRQKILGRYYRVRGPTFGRYLLADEQERLTGAVDADEILIKARSILEHHHHHH	not soluble
MTTYDRNRNAITTGSRVMVSGTGHTGKILSIDTEGLTAEQIRRGKTVVVEGCEEKLAPLDLIRLGMN	soluble
GAQVSSQKVGAHENSNRAYGGSTINYTTINYYKDSASNAASKQDYSQDPSKFTEPLKDVLIKTAPALN	soluble
RFLSIKTSWEDYFLEDDPMIIKTEEFKSVFGNDNYAAVLTDCDNTFTKENLELIRRLSNEMLDSISYAEKITSLTDIEFMIGNEEGMAIEQIVPEEIPSDSAGLAEIRRKAFLKPYIADRLVSKDGTLTWILLKLNPFPSDSVWNKGKGAVAPEMVVGRELEHIIRKPEYAALHPKGAGMPYMTDRKMAWVNRE	not soluble
MSLYKLYSMQRSGNSYKVRLALALLDAPYRAVEVDILRGESRTPDFLAKNPSGQVPLLETAPGRYLAESNAILWYLAVGTSLAPDTRMDRAEALQWMFFEQHALEPNIGSAYFWLCLVKGGRDLQTHALEDWLERGYAALQVMENHLKTNDYFAAGQLTIADIALYGYTHVADQCDFDLSTFPAVNAWLRRVEQTPGFITMDWTPETIAADPTSFAAEGHHHHHH	soluble
MELKDGESAGNAENDVEIENPEKSEKAEILQSLDKSLGKSTEESPEAKNLRYFKTKKIRFGPIEYQIVTQNINGPCPLIALINALVLKGKLTIPSSYVVTSTNLLNLLTNVILARAPPENDEKLKETFEANLGDVMNIMETLVNGLDVNVKFSAVDTFEFTPALSLFDLVSVNLYHVWLPDPQFTVLYDLIRNLNYNELVEKMCGDQSTETELLRTFYDESISQITFHGLASLMERMKDGELAVVFHNNHFSTILKRRDEIFKLVSDEGLCDEPNIVWETFSSVDGDCIFVNGDFGNFKPITPPTTHPSPESFEKLQISDNSPIEQGIEAVEHTSAHHSAPVSPQHRAPAPPAPQTARAPPETSPTRNSGAGGKSCLIM	soluble
MAGDPMVRLNVKPTRMELNNLKERLTTAERGHKLLKDKRDELMRRFISLIRENNQLRKEVESYLIDNLKSFAVAKSLKNSQMVEELFSIPSKEIELFVEKENIMSVTVPRMHMNITSQNENSEYSYLSSNSEMDDVFATMNSLIYKLLRLAEVEKTCQLMADEIEKTRRRVNGLEYSIIPNLSETIHYIELKLEEAERANLVRIMKVKLEHHHHHH	not soluble
MSSLARGISRRRTEVATQVEAAPTGLRPNAVVGVRLAALADQVGAALAEGPAQRAVTEDRTVTGVTLRAQDVSPGDLFAALTGSTTHGARHVGDAIARGAVAVLTDPAGVAEIAGRAAVPVLVHPAPRGVLGGLAATVYGHPSERLTVIGITGTSGKTTTTYLVEAGLRAAGRVAGLIGTIGIRVGGADLPSALTTPEAPTLQAMLAAMVERGVDTVVMEVSSHALALGRVDGTRFAVGAFTNLSRDHLDFHPSMADYFEAKASLFDPDSALRARTAVVCIDDDAGRAMAARAADAITVSAADRPAHWRATDVAPTDAGGQQFTAIDPAGVGHHIGIRLPGRYNVANCLVALAILDTVGVSPEQAVPGLREIRVPGRLEQIDRGQGFLALVDYAHKPEALRSVLTTLAHPDRRLAVVFGAGGDRDPGKRAPMGRIAAQLADLVVVTDDNPRDEDPTAIRREILAGAAEVGGDAQVVEIADRRDAIRHAVAWARPGDVVLIAGKGHETGQRGGGRVRPFDDRVELAAALEALERRA	soluble
MSLKVVSVDTLCCDAGWRNYHFVKLTTDEGIVGWSEFDEGFGSPGVTAVIEQLGKRLVGASVMEHERFFAEAYCLTRPATGGVVSEGIGAIENALLDAKAKTLNVPCYELLGGKLRDRVPVYWSHCPTWRINHPKFFGPPVTDLDGVKRTAEEARERQFRAIKTNIFIHDDGPLHAWRPGFAVPFQPALNVDRKVLRNLRAHLEALRDGAGPDVEILLDLNFNAKPEGYLKILRELADFDLFWVEIDSYSPQGLAYVRNHSPHPISSCETLFGIREFKPFFDANAVDVAIVDTIWNGVWQSMKIAAFADAHDINVAPHNFYGHLCTMINANFAAAVPNLRIMETDIDRLAWEDELFTHAPEYQNGELIIPDRPGWGTDPVEEAILAHPPKVMGGLLQYKRSEGHHHHHH	soluble
MGSDKIHHHHHHMAARNDDKYRGDTENKGFWTIDFGRSPVIGTAIHDGHFIRSDIASLMALSPEQRLREEDPFTGEMIARLTNRLVVHHSRFEIDLNRAADQAIYLKPEQSWGLEVWSEEPSQDAVRHSLDFHADYYAMLESVLSSVERRHGPFVVLDVHSYNHRRQGAGEPPTAQAEAPDINIGTFSMDRSRWNDVVSAVGEHFASATIGGRRLDVRENVAFQGKGEQTRFIHERFAENGCAIAIEFKKFFMDEWTGEPDRRVVSDIRETIAALQPVLEECLRSR	not soluble
MTSYSLEDFNTPLECAPLARWERKRKEQLDRTSKTPNKTPQGDRFIPNRNVMNIEVSRLNLQQEYYGKENNQNSSSLLDSHMDNVEWNSGKDSPACHHYQSALASSLLQNSYHEEHPQSKILTFKQKAPKPQEGYVNSLKVLYSQNMPQISEQRKRMIRHIPQTPDRILDAPELVDDYYLNLLDWNHENILAVALGSSVYLWNASTGDIQELCNVSQDEMICSVSWVPDGHHLAVGTSMKDVQLWDTQRGRQVRKMHSHSSRVGCLAWNGPILSSGSRDTTIHHHDVRIAQHHVETLRGHEQEVCGLKWNVDGSQLASGGNDNLLMIWDHFHSNQPKYRLDHHHAAVKAIAWCPWQTHLLASGGGTADRTIKFWNTTTGACLQSIDTKSQVCALIWNRHDKEIVSSHGFSQNQLIVWKYPSMVKMAELTGHTSRVLHLSLSPDGQTVVSGAGDETLRFWRVFEASESKLKSSNKTLGHSQKSIMRTCNIR	soluble
MFKRTKLILIATLLLSGCSTTNNESNNETKSVPEEMEASKYVGQGFQPPAEKDAIEFAKKHRKEFEKVGEQFFKDNFGLKVKATNVVGKDDGIEVYVHCDDHGIVFNASLPLYKDAIHQKGSMRSNDNGDDMSMMVGTVLSGFEYRAQKEKYDNLYKFFKENEKKYQYTGFTKEAINKTQNVGYKNEYFYITYSSRSLKEYRKYYEPLIQKNDKEFKEGMERARKEVNYAADTDAVATLFSTKKNFTNDNTEDDVIELSDKLYNLKNKPDKSTITIQIGKPTINTKKAFYDDNRPIEYGVHSKGELEHHHHHH	not soluble
AESTLGAAAAQSGRYFGTAIASGKLGDSAYTTIASREFNMVTAENEMKIDATEPQRGQFNFSAGDRVYNWAVQNGKQVRGHTLAWHSQQPGWMQSLSGSTLRQAMIDHINGVMGHYKGKIAQWDVVSHAFSDDGSGGRRDSNLQRTGNDWIEVAFRTARAADPAAKLCYNDYNIENWTWAKTQGVYNMVRDFKQRGVPIDCVGFQSHFNSGSPYNSNFRTTLQNFAALGVDVAITELDIQGASSSTYAAVTNDCLAVSRCLGITVWGVRDTDSWRSGDTPLLFNGDGSKKAAYTAVLNALNGGSSTPPPSGGGQIKGVGSGRCLDVPNASTTDGTQVQLYDCHSATNQQWTYTDAGELRVYGDKCLDAAGTGNGTKVQIYSCWGGDNQKWRLNSDGSIVGVQSGLCLDAVGGGTANGTLIQLYSCSNGSNQRWTRT	soluble
MIAITGATGQLGHYIIESLMKTVPASQIVAIVRNPAKAQALAAQGITVRQADYSDEAALTSALQGVEKLLLISSSEVGQRAPQHRNVINAAKAAGVKFIAYTSLLHADTSPLGLADEHIETEKMLADSGIVYTLLRNGWYSENYLASAPAALEHGVFIGAAGDGKIASATRADYATAAARVISEAGHEGKVYELAGDSAWTLTQLAAELTKQSGKQVTYQNLSEADFAAALKSVGLPDGLADMLADSDVGASKGGLFDNSKTLSKLIGCPTTTLAESVSHLFNVNN	not soluble
MGSDKIHHHHHHMCPARLRTPRTASLPTHRRSAMTTANPLNTSFTSADAAELYQVPNWSGGWFRVSDKGLMEATPAPGLHASLRAIVDEIVDRGESLPVILRFPQVLAGRVKHLNEAFQAAINEYNYSGHYQGVFPIKVNQRRAVVETVAAAGYDYAHGLEAGSKAELALCLAQKMHPDALLCCNGFKDDGFIKLALWGRTLGKNVVITIEKFTELDRILKQAKALGVKPAVGVRFKLHARGSGQWEESGGDQAKFGLNAYELLRVVERLKEENMLDSLVMLHTHIGSQITDIRRVKVAVREAAQTYAGLIAAGADLKYLNVGGGLGVDYDGSKTTFYASMNYTVKEYAADIVYTVQEVCKAREVPEPVIVSESGRALTAHHAVLILPVVDVTGPTRNLEDQELTVPGEDSHQIVRDMYETLENISMRNYRESYNDAVGDKQTLHNLFDLGYVTLEDRARGEALFNAILRKIAKLIQGEKYVPDELEDLQKVLADKFICNFSLFQSLPDNWAIGALFPIVPLDRLNEQPTRQATLVDITCDSDGKVEKFIDLRDVKATLPLHEPGDRPYYLGAFLMGAYQDVLGSAHNLFGKVSEAHVTVRPGGRFNIDLFVRGQKARRMIESMGYEEPMLRDAIEDQADAAIGRGTLTQEQEHELLEDYGEELLGYTYLEYES	not soluble
MGSDKIHHHHHHMKLLCSLASPYARCVRSLIRYLGIEDIEEVLVNPMENTAQLLDVNPLGQIPCLITNDGVPIFDSEVIMRYLDTELGAQEMFGGQPYNWVLQCQYSMIKGLIDSAVKLRQEQMREEEGVRSAFWTSRFEQALLRGLMQMEHQSVITQTTIQAPQLTLICLLDYVDFRHPELDWRKVAPATAIWFSEMRDLPAFVETRPQ	not soluble
